From patent US20100279318A1 (OMEROS, published 2010)

Target: T1, dopamine D5 receptor-GFP (D5-GFP) (Aequoria victoria, UniProt P21918 1-477; P42212 1-238 = GFP)
T1 construct: also called D5 dopamine receptor; not shown: vector-encoded residues between the KpnI site and the start codon of GFP
Assay: NLS co-trafficking assay, co-transfected HEK cells, 48 h, confocal microscopy

B1: Dopamine D1 receptor containing a NLS (D1-NLS) (receptor)
chain: MRTLNTSAMDGTGLVVERDFSVRILTACFLSLLILSTLLGNTLVCAAVIRFRHLRSKVTNFFVISLAVSDLLVAVLVMPWKAVAEIAGFWPFGSFCNIWVAFDIMCSTASILNLCVISVDRYWAISSPFRYERKMTPKAAFILISVAWTLSVLISFIPVQLSWHKAKPTSPSDGNATSLAETIDNCDSSLSRTYAISSSVISFYIPVAIMIVTYTRIYRIAQKQIRRIAALERAAVHAKNCQTTTGNGKPVECSQPESSFKMSFKRETKVLKTLSVIMGVFVCCWLPFFILNCILPFCGSGETQPFCIDSNTFDVFVWFGWANSSLNPIIYAFNAKKFKRFSTLLGCYRLCPATNNAIETVSINNNGAAMFSSHHEPRGSISKECNLVYLIPHAVGSSEDLKKEEAAGIARPLEKLSPALSVILDYDTDVSLEKIQPITQNGQHPT
notes: No fluorescent tag; whether that entry is the full-length receptor cannot be seen from the text; The vector of the untagged D1-NLS is not described; also called D1 receptor with the NLS
binding result: no binding
